# Values of other authors, collected in paper PMC5705969.
# Tests used:
# Kv1.1 = Kv1.1 (UniProt Q09470)
# Kv1.3 = Kv1.3 (UniProt P22001)
# Kv1.2 = Kv1.2 (UniProt P16389)
# Chain of UniProt P16389 (P16389 whole entry): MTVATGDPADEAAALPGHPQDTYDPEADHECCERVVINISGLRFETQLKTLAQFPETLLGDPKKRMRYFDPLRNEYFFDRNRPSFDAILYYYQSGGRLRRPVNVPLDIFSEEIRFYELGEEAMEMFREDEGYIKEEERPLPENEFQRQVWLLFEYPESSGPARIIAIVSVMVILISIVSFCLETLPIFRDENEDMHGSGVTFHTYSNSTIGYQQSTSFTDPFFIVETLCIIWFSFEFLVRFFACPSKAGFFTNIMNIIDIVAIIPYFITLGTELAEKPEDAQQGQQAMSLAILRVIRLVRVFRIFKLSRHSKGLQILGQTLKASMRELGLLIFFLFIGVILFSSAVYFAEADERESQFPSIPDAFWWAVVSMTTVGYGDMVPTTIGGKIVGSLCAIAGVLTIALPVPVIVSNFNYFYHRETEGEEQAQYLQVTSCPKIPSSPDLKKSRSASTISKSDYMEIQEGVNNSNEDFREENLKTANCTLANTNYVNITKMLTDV
# Chain of UniProt P22001 (P22001 whole entry): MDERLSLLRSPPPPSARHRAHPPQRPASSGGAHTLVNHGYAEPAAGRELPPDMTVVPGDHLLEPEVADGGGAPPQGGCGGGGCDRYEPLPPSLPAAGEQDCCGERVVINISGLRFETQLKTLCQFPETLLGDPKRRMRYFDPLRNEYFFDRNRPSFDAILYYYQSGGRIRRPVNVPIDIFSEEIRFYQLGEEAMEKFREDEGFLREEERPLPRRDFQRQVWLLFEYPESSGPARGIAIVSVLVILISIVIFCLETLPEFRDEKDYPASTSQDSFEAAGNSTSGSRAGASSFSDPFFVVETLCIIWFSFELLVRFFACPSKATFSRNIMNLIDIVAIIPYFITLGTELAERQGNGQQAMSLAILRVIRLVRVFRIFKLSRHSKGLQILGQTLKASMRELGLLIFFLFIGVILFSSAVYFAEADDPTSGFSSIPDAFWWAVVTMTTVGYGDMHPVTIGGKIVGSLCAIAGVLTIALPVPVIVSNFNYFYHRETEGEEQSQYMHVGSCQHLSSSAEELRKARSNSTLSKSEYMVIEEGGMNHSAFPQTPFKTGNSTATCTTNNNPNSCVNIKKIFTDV
# Chain of UniProt Q09470 (Q09470 whole entry): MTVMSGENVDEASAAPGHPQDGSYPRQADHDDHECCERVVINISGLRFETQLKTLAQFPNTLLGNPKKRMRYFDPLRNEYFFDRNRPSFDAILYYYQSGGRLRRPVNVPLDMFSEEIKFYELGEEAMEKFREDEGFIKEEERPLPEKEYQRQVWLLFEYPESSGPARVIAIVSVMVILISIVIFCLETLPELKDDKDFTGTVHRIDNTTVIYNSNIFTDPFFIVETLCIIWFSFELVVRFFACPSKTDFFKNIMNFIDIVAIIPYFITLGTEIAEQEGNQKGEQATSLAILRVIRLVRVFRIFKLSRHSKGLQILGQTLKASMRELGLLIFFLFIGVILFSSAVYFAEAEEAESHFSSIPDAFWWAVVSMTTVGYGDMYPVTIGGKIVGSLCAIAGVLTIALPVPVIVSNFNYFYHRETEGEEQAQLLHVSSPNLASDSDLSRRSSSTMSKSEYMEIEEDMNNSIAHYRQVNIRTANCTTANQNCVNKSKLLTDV
substance,measurement,setting,value
AgTx-2 (from UniProt P46111),Kd,Kv1.1,0.13 nM
same,Kd,Kv1.3,0.05 nM
same,Kd,Kv1.2,3.4 nM
